Results published in US6749856B1, “Mucosal cytotoxic T lymphocyte responses” (priority 1997, dated 2004).

Test system: P18IIIB-I10 peptide-pulsed 51Cr labeled P815 targets
Assay: CTL 51Cr release assay with PP, LP or SP effector cells of immunized mice
Assay type: in vivo, BALB/c mice
Details: day 35

B1: rmIL-12 (protein, UniProt P43431 23-215; P43432 23-335, looked up)
Interleukin-12 subunit alpha: RVIPVSGPARCLSQSRNLLKTTDDMVKTAREKLKHYSCTAEDIDHEDITRDQTSTLKTCLPLELHKNESCLATRETSSTTRGSCLPPQKTSLMMTLCLGSIYEDLKMYQTEFQAINAALQNHNHQQIILDKGMLVAIDELMQSLNHNGETLRQKPPVGEADPYRVKMKLCILLHAFSTRVVTINRVMGYLSSA
Interleukin-12 subunit beta: MWELEKDVYVVEVDWTPDAPGETVNLTCDTPEEDDITWTSDQRHGVIGSGKTLTITVKEFLDAGQYTCHKGGETLSHSHLLLHKKENGIWSTEILKNFKNKTFLKCEAPNYSGRFTCSWLVQRNMDLKFNIKSSSSSPDSRAVTCGMASLSAEKVTLDQRDYEKYSVSCQEDVTCPTAEETLPIELALEARQQNKYENYSTSFFIRDIIKPDPPKNLQMKPLKNSQVEVSWEYPDSWSTPHSYFSLKFFVRIQRKKEKMKETEEGCNQKGAFLVEKTSTEVQCKGGNVCVQAQDRYYNSSCSKWACVPCRVRS
1 μg IP each day of IR immunization with PCLUS3-18IIIB 50 μg
  change in HIV-specific CTL activity in mucosal or systemic sites, rmIL-12 by IP route: did not lead to significant changes
1 μg IR
  change in CTL level in mucosal and systemic sites, rmIL-12 + DOTAP intrarectally with peptide: significant increase in the CTL level
rmIL-12 1 μg/mouse + DOTAP IR with peptide
  induction of mucosal or systemic CTL in IR-immunized IFNγ−/− mice treated mucosally with rmIL-12: did not lead to the induction of mucosal or systemic CTL
